Test results published in paper PMC9449809 (Frontiers in Immunology, 2022).

Biological target: SARS-CoV-2 spike protein receptor-binding domain, Wuhan-Hu-1 sequence (SARS-CoV-2, UniProt P0DTC2)
Test: ELISA
Conditions: both partners purified

B1: monoclonal antibody REGN10987 (imdevimab) (antibody, V domains shown)
VH: QVQLVESGGGVVQPGRSLRLSCAASGFTFSNYAMYWVRQAPGKGLEWVAVISYDGSNKYYADSVKGRFTISRDNSKNTLYLQMNSLRTEDTAVYYCASGSDYGDYLLVYWGQGTLVTVSS
VL: QSALTQPASVSGSPGQSITISCTGTSSDVGGYNYVSWYQQHPGKAPKLMIYDVSKRPSGVSNRFSGSKSGNTASLTISGLQSEDEADYYCNSLTSISTWVFGGGTKLTVL
- binding result: binds

B2: monoclonal antibody REGN10933 (casirivimab) (antibody, V domains shown)
VH: QVQLVESGGGLVKPGGSLRLSCAASGFTFSDYYMSWIRQAPGKGLEWVSYITYSGSTIYYADSVKGRFTISRDNAKSSLYLQMNSLRAEDTAVYYCARDRGTTMVPFDYWGQGTLVTVSS
VL: DIQMTQSPSSLSASVGDRVTITCQASQDITNYLNWYQQKPGKAPKLLIYAASNLETGVPSRFSGSGSGTDFTFTISGLQPEDIATYYCQQYDNLPLTFGGGTKVEIK
- binding result: binds
